The nature of this data set: self-splicing fitness, log relative to wild type (ln ratio); higher = more splicing; Tetrahymena group I intron in knt gene, E. coli kanamycin selection, DiMSum; sequences stand for … in CUCUCU…GGAGGGAAAAGUUAUCAGGCAUGCACCUGGUAGCUAGUCUUUAAACCAAUAGAUUGCAUCGGUUUAAAAGGCAAGACCGUCAAAUUGCGGGAAAGGGGUCAACAGCCGUUCAGUACCAAGUCUCAGGGGAAACUUUGAGAUGGCCUUGCAAAGGGUAUGGUAAUAAGCUGACGGACAUGGUCCUAACCACGCAGCCAAGUCCUAAGUCAACAGAUCUUCUGUUGAUAUGGAUGCAGUUCACAGACUAAAUGUCGGUCGGGGAAGAUGUAUUCUUCUCAUAAGAUAUAGUCGGACCUCUCCUUAAUGGGAGCUAGCGGAUGAAGUGAUGCAACACUGGAGCCGCUGGGAACUAAUUUGUAUGCGAAAGUAUAUUGAUUAGUUUUGGAGUACUCGUGGUCG
The method in brief:
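Fitness was computed with DiMSum as the error-weighted combination of replicate fold changes, kanamycin versus none, each normalised to wild type. The library randomised all eight intron nucleotides of the P1ex region, with the intron placed in the knt kanamycin-resistance gene on pET-22b(+) in E. coli BL21(DE3). Six replicate transformations were grown overnight at 37°C or 30°C on LB agar with or without 25 μg/mL kanamycin, plus 100 μg/mL carbenicillin, 50 μM IPTG and 0.2% rhamnose. Pooled colonies were amplicon-sequenced on an Illumina HiSeq 2500.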

± gives the uncertainty stated by the source.

In the case of CCCGAGCAAUAUUACGCGUG, the “self-splicing fitness (ln)” value (30 °C) is -3.9 ± 0.2 and the “self-splicing fitness (ln)” value (37 °C) is -3.2 ± 0.29.

As to GAAGAGCAAUAUUACGAGCU, the “self-splicing fitness (ln)” value was -4.07 ± 0.21 (30 °C) and -1.61 ± 0.14 (37 °C).

For the sequence CGGUAGCAAUAUUACGGGCC, the “self-splicing fitness (ln)” value (30 °C) is -3.47 ± 0.36.

Take GGCAAGCAAUAUUACGUUUG: the “self-splicing fitness (ln)” value reads like this: (30 °C) -3 ± 0.13; (37 °C) -2.83 ± 0.22.

Take AAGUAGCAAUAUUACGGUUA: the “self-splicing fitness (ln)” value reads like this: (30 °C) -0.841 ± 0.087; (37 °C) -0.334 ± 0.085.

For GGAAAGCAAUAUUACGGCCG, the “self-splicing fitness (ln)” value by setting is: (30 °C) -0.751 ± 0.12; (37 °C) -0.566 ± 0.16.

For UCUAAGCAAUAUUACGUAGC, the “self-splicing fitness (ln)” value reads like this: (30 °C) -2.23 ± 0.19; (37 °C) -1.25 ± 0.2.

With UUCUAGCAAUAUUACGCGAA, the “self-splicing fitness (ln)” value is -2.25 ± 0.21 (30 °C) and -1.3 ± 0.2 (37 °C).

AGUUAGCAAUAUUACGUCCU: the “self-splicing fitness (ln)” value (30 °C) turned out to be 0.147 ± 0.09 and the “self-splicing fitness (ln)” value (37 °C) was 0.0687 ± 0.091.

Turning to UAAAAGCAAUAUUACGAGCU, the “self-splicing fitness (ln)” value reads like this: (30 °C) -2.07 ± 0.11; (37 °C) -1.68 ± 0.14.

With GAAUAGCAAUAUUACGACCU, the “self-splicing fitness (ln)” value by setting is: (30 °C) -0.378 ± 0.11; (37 °C) 0.363 ± 0.13.

In the case of UGGCAGCAAUAUUACGAUUU, the “self-splicing fitness (ln)” value is -1.66 ± 0.086 (30 °C) and -0.484 ± 0.1 (37 °C).

Take UCCUAGCAAUAUUACGGUCC: for the setting “30 °C”, the “self-splicing fitness (ln)” value is -2.63 ± 0.24.

Regarding ACCAAGCAAUAUUACGAAUA, the “self-splicing fitness (ln)” value runs as follows: (30 °C) -2.69 ± 0.2; (37 °C) -2.1 ± 0.16.

UGGCAGCAAUAUUACGACGU: the “self-splicing fitness (ln)” value (30 °C) is -1.84 ± 0.16 and the “self-splicing fitness (ln)” value (37 °C) is -0.565 ± 0.2.

CAAAAGCAAUAUUACGAGUA: the “self-splicing fitness (ln)” value was -3.32 ± 0.14 (30 °C) and -1.89 ± 0.11 (37 °C).

As to AUCUAGCAAUAUUACGGAAU, the “self-splicing fitness (ln)” value runs as follows: (30 °C) -1.87 ± 0.16; (37 °C) -2.1 ± 0.19.

Turning to GUAGAGCAAUAUUACGGAGA, the “self-splicing fitness (ln)” value (30 °C) is -2.58 ± 0.3.

For the sequence AGUGAGCAAUAUUACGAUCU, the “self-splicing fitness (ln)” value by setting is: (30 °C) -1.7 ± 0.14; (37 °C) -1.13 ± 0.15.

UCGUAGCAAUAUUACGCACA: the “self-splicing fitness (ln)” value is, setting by setting: (30 °C) -2.52 ± 0.21; (37 °C) -1.7 ± 0.2.

Turning to UAACAGCAAUAUUACGACCC, the “self-splicing fitness (ln)” value by setting is: (30 °C) -2.15 ± 0.18; (37 °C) -1.42 ± 0.19.

Consider GAGUAGCAAUAUUACGUCGA, for which the “self-splicing fitness (ln)” value reads like this: (30 °C) -1.43 ± 0.15; (37 °C) -0.114 ± 0.14.

As to AUGCAGCAAUAUUACGAUAG, the “self-splicing fitness (ln)” value is, setting by setting: (30 °C) -2.99 ± 0.19; (37 °C) -2.57 ± 0.22.

On to UGAUAGCAAUAUUACGCCAC, for which the “self-splicing fitness (ln)” value (37 °C) is -0.614 ± 0.29.

Turning to GAUAAGCAAUAUUACGGCCG, the “self-splicing fitness (ln)” value by setting is: (30 °C) -1.35 ± 0.1; (37 °C) -0.332 ± 0.15.

In the case of ACACAGCAAUAUUACGUAUU, the “self-splicing fitness (ln)” value reads like this: (30 °C) -3.09 ± 0.089; (37 °C) -2.29 ± 0.13.

Consider UGACAGCAAUAUUACGCACG, for which the “self-splicing fitness (ln)” value is, setting by setting: (30 °C) -0.996 ± 0.093; (37 °C) -0.312 ± 0.14.

AAUUAGCAAUAUUACGGUAG: the “self-splicing fitness (ln)” value runs as follows: (30 °C) -4.2 ± 0.39; (37 °C) -1.66 ± 0.24.

CUGCAGCAAUAUUACGUGGG: the “self-splicing fitness (ln)” value is -4.18 ± 0.18 (30 °C) and -3 ± 0.13 (37 °C).

For AGAAAGCAAUAUUACGAGCC, the “self-splicing fitness (ln)” value by setting is: (30 °C) -2.01 ± 0.17; (37 °C) -0.816 ± 0.21.

Consider GGAAAGCAAUAUUACGUGAC, for which the “self-splicing fitness (ln)” value by setting is: (30 °C) -2.97 ± 0.19; (37 °C) -1.94 ± 0.24.

On to CGGUAGCAAUAUUACGUUUG, for which the “self-splicing fitness (ln)” value runs as follows: (30 °C) -0.275 ± 0.082; (37 °C) -0.027 ± 0.098.

As to UUCCAGCAAUAUUACGUUUG, the “self-splicing fitness (ln)” value was -4.67 ± 0.46 (30 °C) and -2.83 ± 0.24 (37 °C).

In the case of AGUUAGCAAUAUUACGAGUA, the “self-splicing fitness (ln)” value is -2.73 ± 0.17 (30 °C) and -1.64 ± 0.13 (37 °C).

Values taken from the supplement of paper PMC7877785.
